Measured values reported in patent publication US20260000752A1.

Molecular target: human IgG (used as a control) (human)
Assay: ELISA pH 7.4; human IgG control coated, biotinylated FcRn titrated, streptavidin-HRP

In the case of “recombinant human FcRn, biotinylated (R&D Systems) (from UniProt P55899 24-297; P61769 21-119) (receptor)”, the EC50 is reported as 0.0292 µg/mL.
